Source: patent US20220233554

Target: OCT4 wild-type in cells (human) (UniProt Q01860)
Assay: cell_activity
Conditions: for binding signal: transcription activity relative to OBS1+OBS2

UniProt Q01860, sequence (Q01860 whole entry): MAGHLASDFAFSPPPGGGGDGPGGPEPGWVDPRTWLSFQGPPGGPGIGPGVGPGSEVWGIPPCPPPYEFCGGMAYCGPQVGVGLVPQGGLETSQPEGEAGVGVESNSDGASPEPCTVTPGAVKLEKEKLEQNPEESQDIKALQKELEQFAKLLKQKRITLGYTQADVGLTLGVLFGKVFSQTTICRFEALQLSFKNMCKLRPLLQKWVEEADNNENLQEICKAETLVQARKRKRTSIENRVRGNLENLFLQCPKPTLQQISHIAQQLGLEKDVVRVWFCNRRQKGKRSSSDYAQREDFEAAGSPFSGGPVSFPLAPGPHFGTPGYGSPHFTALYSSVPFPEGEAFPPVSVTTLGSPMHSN

MYC OBS2 single-site reporter
binding signal: 40%

MYC OBS1 single-site reporter
binding signal: 60%

MYC -1/-1899 promoter reporter
activity (luciferase reporter in HEK293FT vs vector control): 24.4 fold
